This test addresses T1, XSMC1 (Xenopus (endogenous in egg extracts), UniProt O93308 1-1232).
T1 sequence: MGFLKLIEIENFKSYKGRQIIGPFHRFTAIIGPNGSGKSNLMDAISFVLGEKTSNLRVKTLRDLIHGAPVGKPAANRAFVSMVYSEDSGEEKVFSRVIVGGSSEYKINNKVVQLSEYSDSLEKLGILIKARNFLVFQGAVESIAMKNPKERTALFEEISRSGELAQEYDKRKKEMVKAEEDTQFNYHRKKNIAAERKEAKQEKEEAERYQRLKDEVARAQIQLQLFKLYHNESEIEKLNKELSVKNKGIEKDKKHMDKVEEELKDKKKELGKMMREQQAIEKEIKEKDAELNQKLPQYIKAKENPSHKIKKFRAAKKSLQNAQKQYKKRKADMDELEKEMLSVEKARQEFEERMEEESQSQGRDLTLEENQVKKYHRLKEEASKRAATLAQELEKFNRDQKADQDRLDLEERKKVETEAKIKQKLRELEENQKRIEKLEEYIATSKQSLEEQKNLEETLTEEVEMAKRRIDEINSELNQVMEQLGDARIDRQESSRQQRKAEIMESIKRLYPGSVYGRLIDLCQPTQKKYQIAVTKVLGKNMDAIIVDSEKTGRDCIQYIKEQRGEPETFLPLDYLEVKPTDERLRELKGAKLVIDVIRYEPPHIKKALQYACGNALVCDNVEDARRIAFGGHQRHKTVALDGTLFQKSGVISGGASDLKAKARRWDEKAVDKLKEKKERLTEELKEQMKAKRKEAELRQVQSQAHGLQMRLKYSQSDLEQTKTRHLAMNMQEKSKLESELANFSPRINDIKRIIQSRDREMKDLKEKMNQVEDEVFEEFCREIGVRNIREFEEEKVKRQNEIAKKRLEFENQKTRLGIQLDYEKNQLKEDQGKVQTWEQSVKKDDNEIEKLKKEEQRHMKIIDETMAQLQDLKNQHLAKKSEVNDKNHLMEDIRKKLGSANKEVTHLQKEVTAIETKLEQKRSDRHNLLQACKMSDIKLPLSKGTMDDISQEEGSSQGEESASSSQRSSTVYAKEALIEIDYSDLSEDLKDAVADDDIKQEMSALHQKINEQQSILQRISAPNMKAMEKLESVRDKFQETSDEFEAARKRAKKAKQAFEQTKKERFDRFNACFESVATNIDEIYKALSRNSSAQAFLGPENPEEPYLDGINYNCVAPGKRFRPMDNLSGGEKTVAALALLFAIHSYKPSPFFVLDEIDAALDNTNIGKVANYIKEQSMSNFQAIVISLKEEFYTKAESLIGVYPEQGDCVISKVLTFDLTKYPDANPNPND
The test can be described thus: rotary-shadowing electron microscopy.

The values below come from article PMC2173330 (The Journal of Cell Biology, 2002).

B1: XSMC3 (natural protein)
chain: MYIKQVIIQGFRSYRDQTIVDPFSSKHNVIVGRNGSGKSNFFYAIQFVLSDEFSHLRPEQRLALLHEGTGPRVISAFVEIIFDNSDNRLPIDKEEVSLRRVIGAKKDQYFLDKKMVTKNDVMNLLESAGFSRSNPYYIVKQGKINQMATAPDSQRLKLLREVAGTRVYDERKEESISLMKETEGKRDKINELLKYIEERLHTLEEEKEELAQYQKWDKMRRALEYTIYNQELNETRAKLDELSSKRETSGEKSRQLRDAQQDARDKMEEIERQVRELKSKISAMKEEKEQLSSERQEQIKQRTKLELKTKDLQDELAGNSEQRKRLLKERQKLLEKIEEKQKELAETEPKFSSVKQKEESGIARLAQATQERTDLYAKQGRGSQFTSKEERDKWIKKELKSLDQAINDKKRQIAAINKDLEETEVNKEKNLEQYTKLDQDLNEVKTRVEELDKKYYEVKNKKDELQSERNYLWREENAEQQSLAAKREDLEKKQQLLRAATGKAILNGIDSINKVLEHFRRKGINQHVINGYHGIVMNNFDCEPAFYTCVEVTAGNRLFYHIVESDEVSTKILMEFNKMNLPGEVTFLPLNKLDVRDTAYPETNDAIPMISKLRYNLRFDKAFKHVFGKTLICRSMEVSTQLARAFTMDCITLEGDQVSHRGALTGGYYDTRKSRLELQKDVRKVEDELHALEAKLNENLRRNIERINNEIDQLMNQMQQIETQQRKFKASRDSILSEMKMLKEKRQQSEKTFMPKQRSLQSLEASLHAMESTRESLKAELGTDLLSQLSLEDQKRVDALNDEIRQLQQENRQLLNERIKLEGTITRVETYLNENLRKRLDQVEQELNELRETEGGTVLTATTSELEAINKRVKDTLARSEGLDITIDKTEVESKDLVKSMDRWKNMEKDHMDAINHDTKELEKMTNRQGMLLKKKEECMKKIRELGSLPQEAFEKYQTLSLKQLFRKLEQCNTELKKYSHVNKKALDQFVNFSEQKEKLIKRQEELDRGHKSIMELMNVLELRKYEAIQLTFKQVSKNFSEVFQKLVPGGKATLVMKKGDVEGSQSQDEGEGSTQSSVPSVDQFTGVGIRVSFTGKQAEMREMQQLSGGQKSLVALALIFAIQKCDPAPFYLFDEIDQALDAQHRKAVSDMIMELASHAQFITTTFRPELLESADKFYGVKFRNKVSHIDVITAEQAKDFVEDDTTHG
Turning to B1, the binding result was “binds”.
